Laboratory results: paper PMC6212398 (Nature Communications, 2018)

B1: Hsp27 IPV H peptide with Val181 mutated to alanine (peptide)
chain: EITIPATHE
modifications: EITIPATHE. The paper numbers the peptide from E176, so printed Val181 (V of IPV) is UniProt V183. Peptide termini chemistry is not stated.
B2: Hsp27 IPV H peptide with Ile179 mutated to alanine (peptide)
chain: EITAPVTHE
modifications: EITAPVTHE. The paper numbers the peptide from E176, so printed Ile179 (I of IPV) is UniProt I181. Peptide termini chemistry is not stated.
B3: Hsp27 IPV peptide (native 9-mer EITIPVTFE) (peptide)
peptide: EITIPVTFE
notes: Human Hsp27 (HSPB1), C-terminal IPV (IXI) motif, 9-mer; source: synthetic peptide, bought: Genescript
B4: Hsp27 IPV H peptide (EITIPVTHE) (peptide)
peptide: EITIPVTHE
notes: Human Hsp27 (HSPB1) IPV 9-mer with the penultimate phenylalanine swapped for histidine (the residue at this position in the motif of BAG3); also called His-containing IPV peptide; chimeric peptide; source: synthetic peptide, bought: Genescript
B5: Hsp27 IPV H peptide with the second X residue (Pro) of IXIXV mutated to alanine (EITIAVTHE) (peptide)
peptide: EITIAVTHE
notes: Human Hsp27 (HSPB1) IPV peptide in the His-containing context with the proline of IPV mutated to alanine; source: synthetic peptide, bought: Genescript

Columns and labels:
Test in all cases: ITC; peptide (1 mM) titrated into a cell with Hsp27 proteins (100 µM); SEC buffer (50 mM sodium phosphate, 100 mM NaCl); 25 °C; one-site binding model
Conditions in all cases: both partners purified
[1] = molecular target: T1, Hsp27 alpha-crystallin domain (ACD, residues Q80–S176) (human, UniProt P04792 80-176)
T1 construct: Human Hsp27 (HSPB1), alpha-crystallin domain, residues Q80–S176; Used 15N-labelled (observed in HSQC) and unlabelled; Vector was a gift of the Klevit laboratory; also called Hsp27 ACD
T1 sequence (P04792 80-176): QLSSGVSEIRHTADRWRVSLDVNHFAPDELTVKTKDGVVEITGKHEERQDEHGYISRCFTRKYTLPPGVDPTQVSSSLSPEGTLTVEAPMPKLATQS

[2] = molecular target: T2, Hsp27 3D (pseudo-phosphorylation mutant S15D, S78D, S82D) (human, UniProt P04792 1-205, S15 replaced with aspartate | S78 replaced with aspartate | S82 replaced with …)
T2 construct: Human Hsp27 (HSPB1) in which three serines (S15, S78 and S82) are replaced with aspartate; Vector was a gift of the Dickey laboratory; Compared throughout with the full-length wild type, so probably the whole protein
T2 sequence (P04792 whole entry S15D/S78D/S82D): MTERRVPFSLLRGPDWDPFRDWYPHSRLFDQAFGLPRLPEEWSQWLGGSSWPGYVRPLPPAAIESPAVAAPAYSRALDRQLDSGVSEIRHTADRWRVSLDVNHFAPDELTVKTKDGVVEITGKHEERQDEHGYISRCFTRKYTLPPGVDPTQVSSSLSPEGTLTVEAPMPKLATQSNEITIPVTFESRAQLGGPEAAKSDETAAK

[3] = molecular target: T3, Hsp27 ΔNTD (residues 80–205) (human, UniProt P04792 80-205)
T3 construct: Human Hsp27 (HSPB1) without the N-terminal domain, residues 80–205; Heterogeneous mixture of 3–5 mers; source: E. coli BL21 (DE3), purified (Ni-NTA, size exclusion)
T3 sequence (P04792 80-205, stated change not applied): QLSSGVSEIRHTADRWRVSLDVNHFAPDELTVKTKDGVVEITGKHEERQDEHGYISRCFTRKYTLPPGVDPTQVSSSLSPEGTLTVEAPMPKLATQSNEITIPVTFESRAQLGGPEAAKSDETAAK

Row | Binder | Kd [1] | Kd [2] | Kd [3]
1 | B1 | > 25 µM |  | 
2 | B2 | > 25 µM |  | 
3 | B3 | > 25 µM |  | 
4 | B4 | 11.5 µM | > 50 µM | 11.4 µM
5 | B5 | ~5 µM |  | 
